From PMC3058308 (Nature, 2011)

B1: Nanobody-80 (VHH)
VHH: QVQLQESGGGLVQAGGSLRLSCAASGSIFSINTMGWYRQAPGKQRELVAAIHSGGSTNYANSVKGRFTISRDNAANTVYLQMNSLKPEDTAVYYCNVKDYGAVLYEYDYWGQGTQVTVSS

What was measured:
β2AR-T4L = assay type: binding, human
mBB-β2AR/HDL = mBB-β2AR/HDL (Homo sapiens, UniProt P07550); test: Bimane fluorescence spectroscopy on mBB-β2AR reconstituted in HDL particles; assay type: biochemical
[1] = target: β2 adrenergic receptor truncated at position 365, reconstituted in HDL particles (Homo sapiens (Human)., UniProt P07550); test: radioligand binding

Molecule	Ki (β2AR-T4L; read-out: Ki in the presence of Nb80, β2AR-T4L/HDL, Nb80 1 μM, 0.6 nM [3H]-DHA)	increase of affinity in the presence of Nb80 (β2AR-T4L; β2AR-T4L/HDL with Nb80 versus without)	effect on bimane fluorescence of β2AR bound to inverse agonist ICI-118,551 (mBB-β2AR/HDL; 300 nM Nb80, 1 μM ICI)	effect on bimane fluorescence in the presence of isoproterenol (mBB-β2AR/HDL; 300 nM Nb80, 10 μM isoproterenol)	binding result [1]
isoproterenol	0.56 nM	60 fold			
B1			not observed	increased	binds
